Measurements: article PMC7948472 (2020)

Target: T1, Histone H4 methylated peptide, SGRGK(me3)GGKGLGKGGAK (trimethyl-lysine K(me3) at K5)
T1 peptide: SGRGKGGKGLGKGGAK
Experiment: SPR

B1: D6 Fab (Fab, V domains shown)
VH: QTVKESGGRLVTPGGTLTLTCTVSGFSLSRYAMSWVRQAPGEGLEYIGWINTYGSAYYASWVNGRFTISKTSTTMDLKMTSLTAADTATYFCVRWFADGGMDPWGPGTLVTVSS
VL: ALVLTQTPSPVSAAVGGAVSISCQSSQNIYKDNELSWYQQKPGQPPKLLIYKASTLASGVPSRFSGSGSGTQFTLTISGVQCDDAATYYCQGSRYNNGWDSGFGGGTEVVVK
  Kd: 870 µM

B2: C9 Fab (Fab, V domains shown)
VH: QSVEESGGRLVTPGTPLTLTCTVSGFSLTSYDMSWVRQAPGKGLEYIGFISSTTGGTYYASWAKGRFTISKTSTTVDLKITSPTTEDTATYFCAAGSWYNMWGPGTLVTVSS
VL: AQVLTQTPSSVSAAVGGTVTINCQASQSVYNNNWLGWYQQKPGQPPKLLIYKASTLASGVPSRFRGSGSGTQFTLTISDVQCDDAATYYCAGGYNGNIFPFGGGTEVVVT
  Kd: 1600 µM
